This note sets out measurements from US20120276009A1 (KATHOLIEKE UNIVERSITEIT LEUVEN, published 2012).

For assay [1], the target named is T1, full-length (441 aa) human Tau protein (human, UniProt P10636 1-758).
T1 construct: Non-phosphorylated recombinant protein bought from SignalChem; also called Full-length Tau; Tau40
As to the kind of experiment: ELISA, protein coated at 1 µg/mL.

For assay [2], the target named is T2, T1.6: Tau5-20 (non-phosphorylated peptide) (human).
T2 construct: Non-phosphorylated counterpart of T1.5; also called Tau peptide
T2 peptide: RQEFEVMEDHAGTYGL
The assay is described as follows: ELISA, peptide coated at 10 µg/mL. On the technique in general: ELISA stands for enzyme-linked immunosorbent assay.

T1 sequence (P10636 other isoform, or with tags, fused parts or gaps limits assumed): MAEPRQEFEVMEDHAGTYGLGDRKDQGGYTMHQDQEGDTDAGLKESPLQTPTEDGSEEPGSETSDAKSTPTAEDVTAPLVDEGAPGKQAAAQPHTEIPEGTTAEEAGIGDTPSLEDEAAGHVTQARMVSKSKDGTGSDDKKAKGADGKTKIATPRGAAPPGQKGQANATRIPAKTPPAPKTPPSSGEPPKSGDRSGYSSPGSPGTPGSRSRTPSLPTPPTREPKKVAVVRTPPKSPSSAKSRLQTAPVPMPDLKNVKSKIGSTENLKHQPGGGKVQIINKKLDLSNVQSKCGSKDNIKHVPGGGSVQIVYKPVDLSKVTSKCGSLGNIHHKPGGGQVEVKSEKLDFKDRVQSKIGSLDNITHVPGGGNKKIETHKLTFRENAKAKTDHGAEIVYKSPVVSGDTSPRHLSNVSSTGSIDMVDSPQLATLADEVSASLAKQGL

B1: ACI-35-2G5-Ab1 (antibody, IgG2b, V domains shown)
VH: QVQLKQSGAELVRPGASVKLSCKASGYTFTDYYINWVKQRPGQGLEWIARIYPGRGNIYYNEKFKGKATLTAEKSSSTAYMQLSSLTSEDSAVYFCARFWDVTYWGQGTLVTVSA
VL: DVLMTQTPLSLPVSLGDQASISCRSSQSIVHSNGNTYLEWFLQKPGQSPKLLIYKVSNRFSGVPDRFSGSGSGTDFTLKISRVEAEDLGVYYCFQGSHVPYTFGGGTKLEIK
notes: Mouse monoclonal from hybridoma A6-2G5-08; also called A6-2G5-08
B1: the binding result in assay [1] is recorded as “no binding (tested: 20 µg/mL)”.

B2: ACI-33-6C10-Ab2 (antibody, IgG3, V domains shown)
VH: EVQLVESGGGLVKPGGSLKLSCAPSGFTFSDYGMHWVRQAPEKGLEWVAYISSGSSTIYYGDTVKGRFTISRDNAKNTLFLQMTSLRSEDTAMYYCARRGQLRLRLFAYWGQGTLVTVSA
VL: DIVMTQSHKFMSTSVGDRVSITCKASQDVSTAVAWYQQKPGQSPKLLIYSASYRYTGVPDRFTGSGSGTDFTFTISSVQAEDLAVYYCQQHYTTPLTFGAGTKLELK
notes: Mouse monoclonal from hybridoma 6C10E5E9C12 (DSM ACC3081); also called 6C10E5E9C12
On to B2, for which, in assay [2], the binding result is reported as “no binding (tested: 20 µg/mL)”.
